The text below walks through data of the nanobody polyreactivity screen of Harvey et al. (2022).

A short description of this data set: yeast display, Sf9 membrane polyspecificity reagent, FACS + sequencing; frameworks hold sequencing errors. The method, boiled down:
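Genes from sorted yeast were amplified by colony PCR, read by MiSeq 2 × 250 sequencing and filtered on CDR length. These cells carried a synthetic nanobody library in Saccharomyces cerevisiae BJ5465 and were sorted by FACS into low and high (top ~1%) gates on anti-HA and streptavidin fluorescence. Polyreactivity is labelled according to the gate of origin.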
Turning to “QVQLVESGGGLVQAGGSLRLSCAASGRIFSNNAMGWYRQAPGNERELVAAISSSGGSTYYADSVKGRFTISRDNAKNTVYLQMNSLKPEDTAVSYCNVGRRKIDDYWGQGTQVTVSS”, the “polyreactivity (PSR sort gate)” value is given as “high polyreactivity”.

Turning to “QVQLVESGGGLVQAGGSLRLSCAASGRIFSNYAMGWYRQAPGKERELVAAISRGGGRTFYADSVKGRFTISRDNAKNTVYLQMNSLKPEDTAVYYCATRSYYVKGDYWGQGTQVTVSS”, the “polyreactivity (PSR sort gate)” value is on record as “high polyreactivity”. Then “QVQLVESGGGLVQAGGSLRLSCAASGRIFSNYAMGWYRQAPGKERELVAAISSSGGRTYYADSVKGRFTISRDNAKNTVYLQMNSLKPEDTAVYYCARRHTGTKFAFYYWGQGTQVTVSS”, with “high polyreactivity”; and “QVQLVESGGGLVQAGGSLRLSCAASGRIFSPNAMGWYRQAHVKERELVADITFGDGSTYYADSVKGRFTISRDNAKNTVYLQMNSLIPEDTAVYYCAAELYYLYALYIYYPFYYWGQGTQVTVSS”, with “high polyreactivity”. Then “QVQLVESGGGLVQAGGSLRLSCAASGRIFSQNAMGWYRQAPGKERELVAAISGGSTNYADSVKGRFTISRDNAKNTVFLQMNSLKPEDTAVYYCAADAPFKMDYWGQGTQVTVSS”, with “low polyreactivity”; and “QVQLVESGGGLVQAGGSLRLSCAASGRIFSQNAMGWYRQAPGKEREVVAVISRGGSTNYADSVKGRFTISRDNAKNTVYLQMNSLKPEDTAVYYCAADYAYIRSVWKWFIGDYWGQGTQVTVSS”, with “low polyreactivity”. Then “QVQLVESGGGLVQAGGSLRLSCAASGRIFSQYAMGWNRQAPGKERELVAAITWRGASTYYADSVKGRFTISRDNAKNTVYLQMNSLKPEDTAVYYCAAGYPQGRYYRVRWVGYWGQGTQVTVSS”, with “high polyreactivity”. As to “QVQLVESGGGLVQAGGSLRLSCAASGRIFSQYAMGWYRQAPGKERELVAAISRRTGSTYYADSVKGRFTISRDNAKNTVYLQMNSLKPEDTAVYYCNKARLGWSYRQDDYWGQGTQVTVSS”, the “polyreactivity (PSR sort gate)” value is on record as “high polyreactivity”. Then “QVQLVESGGGLVQAGGSLRLSCAASGRIFSRNAMGWYRQAPGKERELVAAISSSAGSTYYADSVKGRFTISRDNAKHTVYLQMNSLKPEDTAVYYCGAESVGDMDYWGQGTQVSVSS”, with “low polyreactivity”; and “QVQLVESGGGLVQAGGSLRLSCAASGRIFSRNAMGWYRQAPGKERELVAAITRRGGSTYYADSVKGRFTISRDNAKNTVYLQMNSLKPEDTAVYYCATVTYSGSVDYDYWGQGTQVTVSS”, with “high polyreactivity”; and “QVQLVESGGGLVQAGGSLRLSCAASGRIFSRNDMGWYRQSPGKERELVAAITRIGGSTYYADSVKGRITISRDNAKNTVYLQMNSLKPEDNAVYYCAARGSGKYGWGQGSQVTVSS”, with “high polyreactivity”. Then “QVQLVESGGGLVQAGGSLRLSCAASGRIFSRNTMGWYRQAPGKERELVATITSAGSTTYADSVKGRFTISRDNAKNTVYLQMNRLKPEDTAVYYCAARSWKRRVGRDYWGQGTQVTVSS”, with “high polyreactivity”; and “QVQLVESGGGLVQAGGSLRLSCAASGRIFSRYAMGWYRKAPGKERELVAAITQSGTSTYYADSVKGRFTFSRDNAKNTVYLQMNCLKPEDTAVYYCNAYRQYRYDYWGQGTQVTVSS”, with “low polyreactivity”. For “QVQLVESGGGLVQAGGSLRLSCAASGRIFSRYAMGWYRQAPGKERELDAAINKSGGSTYYADSVKGRFTISRDNAKHTVYLQMNSLKPEDTAVYYCAADGRLRGYGYWGQGTQVTVSS”, the “polyreactivity (PSR sort gate)” value is on record as “high polyreactivity”. Then “QVQLVESGGGLVQAGGSLRLSCAASGRIFSRYAMGWYRQAPGKERELVAAINKSGGSTYYADSVKGRFTISRDNAKNTVYLQMNSLKPEDTAVYYCNAVYYYGRRRYGYWGQGTQVTVSS”, with “high polyreactivity”. Then “QVQLVESGGGLVQAGGSLRLSCAASGRIFSRYAMGWYRQAPGKERELVAAINKSGGSTYYADSVKGRFTISRDNEKYTVYLQMNSLKPEDTAVDYCNAVYYWYKGDYWGQGTQVTVSS”, with “high polyreactivity”.

On to “QVQLVESGGGLVQAGGSLRLSCAASGRIFSRYAMGWYRQAPGKERELVAAISWSGGSTYYADSVKGRFTISRDNAKNNVYLQMNSLKPEDTAVYYCAARRSYSYGSWGQGTQVTVSS”, for which the “polyreactivity (PSR sort gate)” value was “high polyreactivity”. Then “QVQLVESGGGLVQAGGSLRLSCAASGRIFSRYAMGWYRQAPGKERELVAVISRSGADTYYADSVKGRFTISRDNAKNTVYLQMNSLKPEDTAVFYCNAYSARRPHPMCYDSWGQGTQVTVSS”, with “high polyreactivity”.

For the sequence “QVQLVESGGGLVQAGGSLRLSCAASGRIFSRYTMGWYRQAPGKERELVAAISRRGGSTNYADSVKGRFTISRDNAKNTVYLQMNSLKPEDTAVYYCAAHGPFVRSQSLRSGRFDYWGQGTQVTVSS”, the “polyreactivity (PSR sort gate)” value is given as “high polyreactivity”. Then “QVQLVESGGGLVQAGGSLRLSCAASGRIFSRYTMGWYRQAPGKERELVAAISYRGGSTYYADSVKGRFTISRDNAKNTVYLQMNSLKPEDTAVYYCAARVQAIYRYDYWGQGTQVTVSS”, with “high polyreactivity”; and “QVQLVESGGGLVQAGGSLRLSCAASGRIFSRYVMGWYRQAPGKERELVAAITRNGGNTYYADSVTGRFTISRDNAKNTVYLQMNSLKPEDTAVYYCAGRAVLKSWAYYYWGQGTQVTVSS”, with “high polyreactivity”; and “QVQLVESGGGLVQAGGSLRLSCAASGRIFSSKAMGWYRQAPGKERELVAAISWIVGRTYYADSVKGRFTISRDNAKNTVYLQMNSLIPEATAVYYCAKGSYYVRNRGWGYDYWGQGTQVTVSS”, with “high polyreactivity”.

As for “QVQLVESGGGLVQAGGSLRLSCAASGRIFSSNAMGWYRQAPGKERELVASINRGDRTYYADSVKGRFTISRDNAKNTVYLQMNSLKPEDTAVYYCAAARTYGKKYGYWGQGTQVTVSS”, the “polyreactivity (PSR sort gate)” value is on record as “high polyreactivity”. Then “QVQLVESGGGLVQAGGSLRLSCAASGRIFSSYAMGWYRQAPGKERELVAAIRYDAGSTYYADSVKGRFTISRDHAKNTVYLQMNSLKPEDTAVYYCAARIYFEQWSWYGYWGQGTQVTVSS”, with “high polyreactivity”. Then “QVQLVESGGGLVQAGGSLRLSCAASGRIFSSYTMGWYRQAPGKERELVATITLRGGRTYYADSVKGRFTISRDNAKNTVYLQMNSLKPEDTAVYYCAATYLTYYHRFNYWGQGTQVTVSS”, with “high polyreactivity”. Then “QVQLVESGGGLVQAGGSLRLSCAASGRIFSTNAMGWYRQAPAKERELVAAITRGVSTKYADSVKRRFTISRDNAKNTVYLQMNSLKPEDTAVYYCAASVVWGPESDYWGQGTQVTVSS”, with “low polyreactivity”; and “QVQLVESGGGLVQAGGSLRLSCAASGRIFSTYTMGWYRQAPGKERELVAAIRANGGSTYYADSVKGRFTISRDNAKNTVYLQMNSLKPEVTAVYYCNARRPIGTGYYWGQGTQVTVSS”, with “high polyreactivity”. As for “QVQLVESGGGLVQAGGSLRLSCAASGRIFSTYVMGCYRQAPGKERELVAAITRGGSTNYADSVKGRFTISRDNAKNTVYLQMNSLKPEDTAVYYCNAQRRGTYYLGQGTQVTVSS”, the “polyreactivity (PSR sort gate)” value is recorded as “high polyreactivity”. Then “QVQLVESGGGLVQAGGSLRLSCAASGRIFSTYVMGWYRQAPGKERELVAAIRNRGGSTYYADSVKGRFTISRDNAKNTVYLQMNSLKPEDTAVFYCAAEYSYRYRVSMDYWGQGTQVTVSS”, with “high polyreactivity”; and “QVQLVESGGGLVQAGGSLRLSCAASGRIFSTYVMGWYRQAPGKERELVAAITWSGGSTYYADSVKGRFTISRDTAQNTVYLQMNTLKPEDTAVYYCAADEIYGYDYWGQGTQVTVSS”, with “high polyreactivity”. Then “QVQLVESGGGLVQAGGSLRLSCAASGRIFSVNAMGWYRQAPGKERELVAAITPGASTNYADSVKGRFTISRDNAKNTVYLQMNSLKPEDTAVYYCAAGWVSFEDWVLGSYYEYDYWGQGTQVTVSS”, with “low polyreactivity”; and “QVQLVESGGGLVQAGGSLRLSCAASGRIFSVNAMGWYRQAPGKERELVAAITSGGRTNYADSVKGRFTISRDNAKNTFYLQMNSLKPEDTAVYYCAAPYLKGGEDDYWGQGTQVTVSS”, with “high polyreactivity”; and “QVQLVESGGGLVQAGGSLRLSCAASGRIFSVYAMGWYRQAPGKEREFVASISWRGGRTYYADSVKGRFTISRDNAKNTVYLQMNSLKPEDTAVYYCAAVSYPAVYGFDYWGQGTQVTVSS”, with “high polyreactivity”. For the sequence “QVQLVESGGGLVQAGGSLRLSCAASGRIFSVYAMGWYRQAPGKERELVAAITNGGRTNYADSVKGRFTISRDNAKNTVYLQMNSLKPEDTAVYYCATDPVKSGYQRYYYWGQGTQVTVSS”, the “polyreactivity (PSR sort gate)” value is “low polyreactivity”. Then “QVQLVESGGGLVQAGGSLRLSCAASGRIFSVYDMGWYRQAPGKERELVAAIDTSDGSTNYADSVTGRFTISRDNAKNTVYLQMNSLKPEDTAVYYCNATDSYVPFDYWGQGTQVTVSS”, with “low polyreactivity”. Regarding “QVQLVESGGGLVQAGGSLRLSCAASGRIFSVYDMGWYRQAPGKERELVAAISWSGGTTYYADSVKGRFTISRDNAKNTVYLQMNSLKPEDTAVYYCAARSRSRYDYWGQGTQVTVSS”, the “polyreactivity (PSR sort gate)” value is “high polyreactivity”. For “QVQLVESGGGLVQAGGSLRLSCAASGRIFSVYTMGWYRKAPGKERELVATISSGGRTNYADSVKGRFTISRDNAKNTVYLQMNSLKPEDTAVYYCAAVPYGFVGYDDYWGQGTQVTVSS”, the “polyreactivity (PSR sort gate)” value is listed as “low polyreactivity”. Then “QVQLVESGGGLVQAGGSLRLSCAASGRIFSVYTMGWYRQAPGKERELVAAISSGASTNYADSVKGRFTISRDNAKNTVYLQMNSLKPEDTAVYYCAKVLTNFNLYYYWGQGTQVTVSS”, with “low polyreactivity”. Then “QVQLVESGGGLVQAGGSLRLSCAASGRIFSVYTMGWYRQAPGKERELVATISSGGRTNYADSVKGRFTISRDNAKNTVYLQLNSLKPEDTAVYYCNADYFGQESWWMDYWGQGTQVTVSS”, with “low polyreactivity”; and “QVQLVESGGGLVQAGGSLRLSCAASGRIFSYNAMGWYRPAPGKEREIVAGITKSGDDTFYADSVKGRFTISRDNAKNTVYLQMNSLKPQDTAVYYCAAASNPRYYTNRMVYWGQGTQVTVSS”, with “low polyreactivity”. Turning to “QVQLVESGGGLVQAGGSLRLSCAASGRIFSYNTVMGWYRQAPGKERELVAAITYSSASTYYADSVKGRFTISRDNAKNTVYLQMNSLKPEDTAVYYCAADAYTPGYRGDYWGQGTQVTVSS”, the “polyreactivity (PSR sort gate)” value is on record as “low polyreactivity”.
